The values that follow come from the supplement of paper PMC10567573.

± gives the standard deviation.

This series can be described thus: protein stability index of a GFP-peptide fusion (GPS, HEK-293T) (PSI 1-6); higher = more stable.
[1] abbreviates: treatment: DMSO, c terminus: a fixed tail appended.
[2] abbreviates: treatment: MLN4924 1 uM, 8 h, c terminus: a fixed tail appended.
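Also: 24-mer peptide tiles fused after GFP, lentivirally expressed, FACS-sorted into six equal bins by GFP/DsRed ratio, decoded by Illumina sequencing, PSI is the read-weighted mean bin number.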

For AAARIRAQVPDTRWSRVGGQRFYS, the protein stability index by setting is: under setting [1], 2.713 ± 0.004; under setting [2], 3 ± 0.61. As to AACSSKRSPIIDVKNDRDRVGHKS [SERPINB5], the protein stability index was found to be 4.85 ± 0.35 under setting [1] and 4.77 ± 0.11 under setting [2].

AAENEFVLLKKDVDAAYANKVELQ [KRT71] gave a protein stability index under setting [1] of 4.7 ± 0.21 and a protein stability index under setting [2] of 4.54 ± 0.39. AAVSRKKKRRMGTYSLVPKKKTKV [EHMT1]: the protein stability index is 4.29 ± 0.32 under setting [1] and 4.32 ± 0.24 under setting [2]. The matching figures for ACGLSDVAHVESLQEKSQCALEEY [NR2F2]: 4.58 ± 0.28 and 4.67 ± 0.3. In the case of ADFSSMLSEEEKEELKAELVQLED [TPD52L1], the protein stability index turned out to be 5.47 ± 0.32 under setting [1] and 5.3 ± 0.37 under setting [2].

ADRLVRVHGDPAVWWVSQFVKYLI [FUT8] came in with a protein stability index under setting [1] of 2.25 ± 0.35 and a protein stability index under setting [2] of 2.11 ± 0.26. With ADRQCQLTFGPDSRHCPQLPPPCA [ADAMTS4], the protein stability index is 4.08 ± 0.16 under setting [1] and 4.08 ± 0.081 under setting [2]. Regarding ADVNAQSSTGNTALTYACAGGYVD [ANKRD17], the protein stability index under setting [1] was found to be 4.21 ± 0.39 and the protein stability index under setting [2] stood at 4.49 ± 0.16. AEERRRQNLQEEKERKLECLPPEP [FAF2] yielded a protein stability index under setting [1] of 5.71 ± 0.18 and a protein stability index under setting [2] of 5.51 ± 0.42.

In the case of AEGAVPETQTLTGWSKGFIGMHRE [RHOBTB1], the protein stability index stood at 4.09 ± 0.12 under setting [1] and 4 ± 0.23 under setting [2]. Consider AEIATASASASTTTTVTAVTAEVD [SNAP91], for which the protein stability index is 5.62 ± 0.23 under setting [1] and 5.47 ± 0.39 under setting [2].

As to AELAGVIKRLWKDSGVQACFNRSR [GNAI1], the protein stability index is, setting by setting: under setting [1], 2.62 ± 0.23; under setting [2], 2.42 ± 0.72. For AESWCYTQVKVVKFSYMWTINNFS [SPOPL], the protein stability index runs as follows: under setting [1], 3.24 ± 0.56; under setting [2], 3.01 ± 0.5.

In the case of AFSYSSSSRFSSSRLLGSASPSSS [PRPH], the protein stability index by setting is: under setting [1], 3.04 ± 0.21; under setting [2], 3.09 ± 0.051. For the sequence AGDAEVCPTPARLATTEKKTEQQR [NOP53], the protein stability index under setting [1] was 5.37 ± 0.23 and the protein stability index under setting [2] was 5.44 ± 0.16. AGLNKDKETEERTDGERVAEVAPE [SDE2]: the protein stability index came out at 5.46 ± 0.33 under setting [1] and 5.63 ± 0.16 under setting [2]. As for AGQVTALPVNSPMNKGDTEVMKCI [CHGA], the protein stability index was 4.12 ± 0.34 under setting [1] and 4.57 ± 0.22 under setting [2]. The corresponding values for AGSTAGAAETRGAVEGAARTTPSR [PALM] are 5.11 ± 0.36 and 5.14 ± 0.27. The matching figures for AHWQCGATLTQVSVEYGYRPGATA [FCHO1]: 2.29 ± 0.18 and 2.24 ± 0.49. The sequence AILLDAHHKTYDPTYSDFCQFRPP [VDR] gave a protein stability index under setting [1] of 2.31 ± 0.2 and a protein stability index under setting [2] of 2.34 ± 0.29. On to AIMLLPDENREVLQTLLYFLSDVT [DLC1], for which the protein stability index is, setting by setting: under setting [1], 2.12 ± 0.23; under setting [2], 2.19 ± 0.13.

As to AIVFTDGRAQDDVSEWASKAKANG [MATN2], the protein stability index under setting [1] turned out to be 3.92 ± 0.29 and the protein stability index under setting [2] was found to be 4.26 ± 0.34. Under setting [2], AKDMKKAVAHMKYMGKGSMTGLAL [MATN2] displayed a protein stability index of 2.37 ± 0.3. As to AKFWPRRRFNFFVLENNLEAVARH [DNAAF3], the protein stability index runs as follows: under setting [1], 2.13 ± 0.33; under setting [2], 2.09 ± 0.19.

AKGDNVYEFHLEFLDLVKPEPVYK [HACD3]: the protein stability index is, setting by setting: under setting [1], 2.41 ± 0.09; under setting [2], 2.54 ± 0.49.

As for AKILPSPVQGSSEDNLSLVCLPRS [DRICH1], the protein stability index is, setting by setting: under setting [1], 3.94 ± 0.18; under setting [2], 4.04 ± 0.18. Sequence ALCQGLYFHINQTLREAHFHSLQH [FAM104A] came in with a protein stability index under setting [1] of 2.81 ± 0.54 and a protein stability index under setting [2] of 2.8 ± 0.51. As for ALGDAFADLSQKSPELQEEFGYNA [ARFIP2], the protein stability index came to 4.6 ± 0.17 under setting [1] and 4.63 ± 0.22 under setting [2]. On to ALHCPTGTEYTCKVYPVQEALAVL [TRIB3], for which the protein stability index was found to be 2.27 ± 0.39 under setting [1] and 2.28 ± 0.32 under setting [2]. On to ALKERADSLAKEIQYLKDLIEEVR [ATF4], for which the protein stability index by setting is: under setting [1], 4.49 ± 0.36; under setting [2], 4.59 ± 0.057. Consider ALQNYNNELVKCIEELCQKREELC [SSNA1], for which the protein stability index under setting [1] came out at 2.94 ± 0.18 and the protein stability index under setting [2] stood at 2.94 ± 0.33. As for ALSPKTTITMAHLLAAREDLSKII [FAM98B], the protein stability index under setting [1] worked out at 2.29 ± 0.27 and the protein stability index under setting [2] came to 2.55 ± 0.065.

For the sequence ALTNIQNCMAEKRETVLIETQLKA [C8orf76], the protein stability index is 3.19 ± 0.34 under setting [1] and 3.09 ± 0.47 under setting [2]. With ALVIMWQKHYVYGPLPQSFDKEWV [COX4I1], the protein stability index stood at 2.88 ± 0.33 under setting [1] and 2.92 ± 0.39 under setting [2].

As to ALWCAAGAGHFEVVKLLVSHGANV [FEM1B], the protein stability index is, setting by setting: under setting [1], 2.51 ± 1.3; under setting [2], 2.37 ± 0.26. As for AMCVRYDGVEVDDSYCDALTRPEP [ADAMTSL2], the protein stability index stood at 4.37 ± 0.33 under setting [1] and 4.31 ± 0.28 under setting [2]. The matching figures for AMRAGVLADDHLIEVNGENVEDAS [PDZK1]: 5.41 ± 0.23 and 5.3 ± 0.11. In turn, ANGEIQRHAEQQALRLEVRAGPDS [CARM1] had a protein stability index under setting [1] of 4.56 ± 0.67 and a protein stability index under setting [2] of 4.74 ± 0.19. The sequence APAASEGAAAPATPTPVAAALDAC [SNAP91] displayed a protein stability index under setting [1] of 5.32 ± 0.23 and a protein stability index under setting [2] of 5.18 ± 0.31. Sequence APGADVKVHRARKTMPKSVVGLHA [EHMT1] returned a protein stability index under setting [1] of 3.7 ± 0.18 and a protein stability index under setting [2] of 3.91 ± 0.41. The corresponding values for APQHPAASALRTRMTGGRPPLPPP [DYRK1B] are 4.38 ± 0.15 and 4.41 ± 0.23. In the case of APSATIHQGEEEGPLDIWAVVKPG [FBXO34], the protein stability index under setting [1] stood at 4.71 ± 0.27 and the protein stability index under setting [2] is 4.79 ± 0.13. On to AQAQALAAQAAAAAHAAQAHRERN [PI4K2A], for which the protein stability index was 4.9 ± 0.076 under setting [1] and 4.8 ± 0.12 under setting [2]. On to AQGFAADVRLMFSNCYKYNPPDHE [BRD3], for which the protein stability index is, setting by setting: under setting [1], 2.99 ± 0.31; under setting [2], 2.8 ± 0.39.

On to AQNAVRLHYGLPVVVKLLHPPSHW [CTNNB1], for which the protein stability index is 2.32 ± 0.23 under setting [1] and 2.23 ± 0.048 under setting [2]. For AREGRETLKCLSHHVADAYTSSQK [TOR1AIP2], the protein stability index turned out to be 4.48 ± 0.35 under setting [1] and 4.44 ± 0.37 under setting [2]. In the case of AREYYSEADASHCIQQILEAVLHC [CAMK2A], the protein stability index reads like this: under setting [1], 2.48 ± 0.26; under setting [2], 2.55 ± 0.24.

ARFAEKEELMLVHSLEYIDLMETT [HDAC6] displayed a protein stability index under setting [1] of 2.66 ± 0.17 and a protein stability index under setting [2] of 2.75 ± 0.38. For ARRQWRDECLMRLAKLKSQVQPQ [CRYL1], the protein stability index was 2.9 ± 0.77 (treatment: DMSO, c terminus: native) and 3.33 ± 0.73 (treatment: MLN4924 1 uM, 8 h, c terminus: native).

Turning to ASDGSDFTFLRPLSVQQPTALALE [PCDHGC5], the protein stability index was 3.82 ± 0.17 under setting [1] and 3.82 ± 0.32 under setting [2]. ASIPEHLAYGSVITVKNLRMAIGY [POMT2]: the protein stability index is, setting by setting: under setting [1], 2.41 ± 0.29; under setting [2], 2.43 ± 0.33. Consider ASKLKETSPLTAEKLCIYTDNSIK [CCND2], for which the protein stability index is 4 ± 0.18 under setting [1] and 4.05 ± 0.092 under setting [2]. In the case of ASLGREESRAPSPLLHKDSASLEV [CBY2], the protein stability index stood at 4.79 ± 0.31 under setting [1] and 4.85 ± 0.19 under setting [2]. The matching figures for ASSVHLKSESSLPHQTSKMENLPG: 4.8 ± 0.26 and 4.85 ± 0.49. Regarding ASVAMICAIASGSELSESAFGYFI [SLC29A1], the protein stability index runs as follows: under setting [1], 2.94 ± 0.68; under setting [2], 2.48 ± 0.52. Regarding ATCRLCGEQVGRGPGFHAGTSALW [ZBED3], the protein stability index is, setting by setting: under setting [1], 2.2 ± 0.57; under setting [2], 2.39 ± 0.12. In the case of ATGDTALTYACENGHTDVADVLLQ [ANKRD17], the protein stability index under setting [1] was 4.41 ± 0.21 and the protein stability index under setting [2] is 4.56 ± 0.08.

ATGKHYGASSCDGCKGFFRRSVRK [HNF4A]: the protein stability index is, setting by setting: under setting [1], 3.35 ± 0.19; under setting [2], 3.73 ± 0.21. Consider ATQMMVDIDGDVLVFLELAQFHCA [RHOBTB2], for which the protein stability index under setting [1] was 3.08 ± 0.33 and the protein stability index under setting [2] was determined as 2.89 ± 0.75.

For the sequence AVGSGERRGGGPVFPAPVVGSGGA [ZBTB22], the protein stability index under setting [1] stood at 4.39 ± 0.19 and the protein stability index under setting [2] came to 4.45 ± 0.38. With AVPKRLLEIVGREGVSLTAVLTTH [HAGHL], the protein stability index is, setting by setting: under setting [1], 2.5 ± 0.39; under setting [2], 2.2 ± 0.6. The matching figures for AYISLVEEEDQHMKLSLGGSEMGL [KLHL13]: 2.98 ± 0.38 and 3.06 ± 0.52.

With CAACKTPIRNRAFYMEEGVPYCER [PDLIM7], the protein stability index came to 2.93 ± 0.3 under setting [1] and 3.38 ± 0.18 under setting [2].

For the sequence CARMLYNYGADTNTRNYEGQTPLA [ASB7], the protein stability index is, setting by setting: under setting [1], 2.63 ± 0.28; under setting [2], 2.62 ± 0.36. For the sequence CDVWSIGCILFEYYRGFTLFQTHE [CLK3], the protein stability index came out at 3.1 ± 0.48 under setting [1] and 3.25 ± 0.44 under setting [2].

Regarding CFKAAFLDFKDLLESEDWEEDNWD [TEX19], the protein stability index by setting is: under setting [1], 2.95 ± 0.2; under setting [2], 3.24 ± 0.36. As for CFKAKLHRKRGSQPPDMASALTDR [RSPH3], the protein stability index under setting [1] turned out to be 3.66 ± 0.26 and the protein stability index under setting [2] came to 3.95 ± 0.28. CGRSEVRPVAPRRPRDAVGQRGAQ [SMAD6] displayed a protein stability index under setting [1] of 4.37 ± 0.24 and a protein stability index under setting [2] of 4.57 ± 0.11.

In the case of CIKIWDVTSQATLLTITKAHSNAI [WDR88], the protein stability index is 2.28 ± 0.33 under setting [1] and 2.61 ± 0.28 under setting [2]. In the case of CIPASSSFVYGAVPIGASIYVIGD [GAN], the protein stability index reads like this: under setting [1], 2.97 ± 0.65; under setting [2], 2.48 ± 0.61.

As for CKVGASSDPCGQLRPTLLLTSLHH [PNLIPRP1], the protein stability index reads like this: under setting [1], 2.1 ± 0.24; under setting [2], 2.22 ± 0.097.
